The DeepSol protein solubility set

Test: soluble on expression in E. coli; label from the status in PepcDB or PDB records

## MPDQPLNQDGFPTASKGVEPDNLPDRVLVDGLKPKHQQLREILEEICTTQLQPGDMLPGERILEEKYGVSRITVRRAIGDLVASGRLKRARGKGTFVAHSPLISRLHLASFSAEMAAQKLSATSRILSSSRGPAPDDIADFFGTDRAAQHITLRRLRLGNGRPYAIDNGWYNSEFAPDLLENDVYNSVYSILDRVYGVPVTQAEQTVTAVAADEDTARLLDVTPGAPLLRILRQSLSGDKPVEWCVSLYRTDRYSLKTLVTRSEDL
  soluble on expression in E. coli: soluble

## IGAVNYSIGANIATNKNKITNLGGSDNIIQTSSYIVKYILKKGESIGSFYGFKTDGLYTQADIDAGHYYTLSGVVPNAGDIKFVPQRDIEYKQEITDEDRTILGKDVPDFTYGVNLSLQYKGFEFSMFGQGISGTKVAFDVYGVHPFYHGQDSPRKYHLKRWTEENPNPHAAYPRIYSASSVHTTYNRNFSDYHLFDSDYFRFKTLSLGYTVPSATVKNWGLQSLKVYVTGENLFTVRADKKMEDFDPETAGGVIYTLGTKSVAFGVNISF
  soluble on expression in E. coli: not soluble

## MNSITVRNATFTWARSDPPTLNGITFSIPEGALVAVVGQVGCGKSSLLSALLAEMDKVEGHVAIKGSVAYVPQQAWIQNDSLRENILFGCQLEEPYYRSVIQACALLPDLEILPSGDRTEIGEKGVNLSGGQKQRVSLARAVYSNADIYLFDDPLSAVDAHVGKHIFENVIGPKGMLKNKTRILVTHSMSYLPQVDVIIVMSGGKISEMGSYQELLARDGAFAEFLRTYASHHHHHH
  soluble on expression in E. coli: soluble

## LKAVNAKKDAKKIDFYEDFSCPHCAELGEVTDGPMTKAIENGDIVVNLRILNFLDRDGDDGNSTKAGAAALAVAQSGDWETYWNYRALLMKEQKNIYGKWGDNDFADVAKSLGASDEVTQKIREGGAKEDFRKFAEANSKKLEKDGGSVSSPRVFIDGKEVKNGIETWVEQATS
  soluble on expression in E. coli: not soluble

## GMRLPLNQRVAILLHEGTTGTIGKTGLALLRYSEAPIVAVIDRNCAGQSLREITGIYRYVPIVKSVEAALEYKPQVLVIGIAPKGGGIPDDYWIELKTALQAGMSLVNGLHTPLANIPDLNALLQPGQLIWDVRKEPANLDVASGAARTLPCRRVLTVGTDMAIGKMSTSLELHWAAKLRGWRSKFLATGQTGVMLEGDGVALDAVRVDFAAGAVEQMVMRYGKNYDILHIEGQGSLLHPGSTATLPLIRGSQPTQLVLVHRAGQTHNGNNPHVPIPPLPEVIRLYETVASGGGAFGTVPVVGIALNTAHLDEYAAKEAIAHTIAETGLPCTDVVRFGADVLLDAVMQN
  soluble on expression in E. coli: soluble

## MSLKAIIDNIKILEQNAINKGLDELILMENAGLNLAKLIKKEAKKIRIQRKIRKVKILFLLGGGNNASDGLVALRNLKHAKAYKIGFKENTLFKKQEQILQNYAFKFCKKEPNFKKFHIIIDCILGTGSNRCLDEKTSLIIQKVNQSKALKIACDIPTNLGFYPCFKADITFCMGALKEILLEDFAKEFVGRIKIANLGIRSKKFYPNSQAFLLEKKDLKTIDRKINANKGNFGHIYIVANASAGTLAGLGALNFGAGLVSLVAQKSFSPLLMLKEKIENNASAIALGMGLENLDFLKDEILQNTPLILDANCFLSEALLWYLNRKDVVITPHPKEFIKLYKMCFDENLDIETLQKNRFFYARKFSQNYDCVLVLKGANPIIVQKEKLFVVNLGNQALAKGGSGDVLSGMIAAHLGFGFSALEAAKNATLAHGLVAKKYKFNKNSFDALKLIKGLKCLEGHHHHHH
  soluble on expression in E. coli: soluble

## MSEVQQLPIRAVGEYVILVSEPAQAGDEEVTESGLIIGKRVQGEVPELCVVHSVGPDVPEGFCEVGDLTSLPVGQIRNVPHPFVALGLKQPKEIKQKFVTCHYKAIPCLYK
  soluble on expression in E. coli: soluble

## NRLLSKYDPQKEAELRTWIEGLTGLSIGPDFQKGLKDGTILCTLMNKLQPGSVPKINRSMQNWHQLENLSNFIKAMVSYGMNPVDLFEANDLFESGNMTQVQVSLLALAGKAKTKGLQSGVDIGVKYSEKQER
  soluble on expression in E. coli: soluble

## MSSAAQAYARTAQRTASPREIEAQALLKAAKQLQDVVTNWEEKGAIGLQEALLFNRKLWSIFVTEAMRDDNPQSIEIRQNIANIGVFVMSQSSALQIKPEVERLQALIDINRNIAAGLSGRP
  soluble on expression in E. coli: not soluble

## MSGLVLGQRDEPAGHRLSQEEILGSTKVVSQGLEALHSEHQAVLQSLSHTIECLQQGGHEEGLVHEKARQLRRSMENIELGLSEAQVMLALASHLSTVESEKQKLRAQVRRLCQENQWLRDELAGTQQRLQRSEQAVAQLEEEKKHLEFLRQLRQYDEDGHGMEEKEGEATKDSLDDLFPNEEEEDSGNDLSRGQGAAAAQQGGYEIPARLRTLHNLVIQYAAQGRYEVAVPLCKQALEDLERTSGRGHPDVATMLNILALVYRDQNKYKEAAHLLNDALSIRESTLGRDHPAVAATLNNLALLSVWGWPTGLPCPGLFYPLLPHYRSTYFTVSLINEPGNI
  soluble on expression in E. coli: soluble

## MRRFQRSTVIDAPRELVWAFHEQADVLEQLTPPWLPVEVVRREGGLGPGAVSEFRLWLGPVPIRWVATHNDDYEPGRCFCDRQSQGPFADWLHRHIFSREGDRTRLIDEVEYALPGGWLPELSVGPVVDAQLERLFAYRQQVTKQWCESRRDAFLQSNRTTKGLQSLLEHHHHHH
  soluble on expression in E. coli: soluble

## SSSSLVEAAAGLPEKGLMVCKWLGTGSAGYGGYKASEYFFPIDNEEFRENLEDWESTLQSWEKLKNYLEGMHKGPVGNQTRTH
  soluble on expression in E. coli: soluble

## MSISGLFILDLKGNVVISRNYRGDVDMSCIEKFMPLLVEKEDEGSASPVLVHQGISYTYIKYMNVYLVTISKKNTNVILVLSALYKIVEVFCEYFKTLEEEAVRDNFVIIYELFDEMLDFGYPQTTESKILQEFITQQGNRLETVRPPMAVTNAVSWRSEGIKYRKNEVFLDVIESVNMLANAQGTVLRSEIVGSIRFRVVLSGMPELRLGLNDKVFFQQSGASSRRGNSGKGVELEDIKFHQCVRLSRFDSERTISFIPPDGEFELMSYRLTTQVKPLIWVEAAVERHAHSRVEYMVKAKSQFKRQSVANHVEVIIPVPSDVSAPKFKTGAGTAKYVPELNAIVWSIRSFPGGREYIMRSSFMLPSIGSEELEGRPPINVKFEIPYYTTSGLQVRYLKIIEKSGYQALPWVRYVTQNGDYQMRMT
  soluble on expression in E. coli: not soluble

## MDPLRAQQLAAELEVEMMADMYNRMTSACHRKCVPPHYKEAELSKGESVCLDRCVSKYLDIHERMGKKLTELSMQDEELMKRVQQSSGPA
  soluble on expression in E. coli: soluble

## MSLGEDEEKAFIVGTVQAIFFENPSNFYKVVLVNVTDTNTDYLEKEIVVTGSFGQVQEEEPYRFFGHFVDHPRYGRQFQVDSYQQERPTSASGVVNYLSSDKFPGIGKRTAEKIVEVLGESAIDRIIDDPSVLEEVTVLNEKKRQVIVETIRLNHGMEQVIVGLNRYGFGSQLAFSIYQTYQEETLSVIQENPYQLVEDIEGVGFKRADNIAEQIGIQADSAVRIRAAILHEVFEHSIRSGNTYVQADVLLEEAIRTLEASRPVEISPDQVANEIITLVEHGKIQQEETKLFENSLYFSEWGIGTSIQRLLSRKKEIHYEEEEVQKNIRMIEKRLNIQYGDSQQAAIEEAIKSPLFILTGGPGTGKTTVINGIVSLFAELNGLSLDLKDYTQEMFPILLAAPTGRAAKRMNETTGLPASTIHRLLGLTGREKNPSLTAKELEGGLLIVDEMSMVDTWLANTLLKAIPTNMQVIFVGDKDQLPSVGPGQVLHDLLQINEIPKCELNEIYRQGDGSSIIPLAHEIKEGKLPADFQKNQKDRSFFASDIGHIEEYIRQIVTKAKAKGFTPQDIQVLAPMYRGAAGIDALNKMMQEIFNPNDGKKKEVKWNDTVYRIGDKVLQLVNTPELNVFNGDMGEIVGITLAKDSEDKVDELVLQFDNNEVTYKRNEWNKITLSYCCSIHKAQGSEFRMVLLPMVHQYSRMLQRNLLYTAVTRSKELLILLGEVSAFETCVKNESASRMTMLKERIVNAEQEGHHHHHH
  soluble on expression in E. coli: soluble

## MFIESRELVMKHRIPVAKTERYWKGLEEGKVFKTVCKSCGKEHHPPRAECLCGGEVEWVEITGEGVVEAFTTVHTIPAGFEWHREPYTIAIARFGEVRVMGWAKEVRVGDVVRLKPGKDETGVWKVYFEVV
  soluble on expression in E. coli: not soluble

## MEKLLQWSIANSQGDKEAMARAGQPDPKLLQQLFGGGGPDDPTLMKESMAVIMNPEVDLETKLVAFDNFEMLIENLDNANNIENLKLWEPLLDVLVQTKDEELRAAALSIIGTAVQNNLDSQNNFMKYDNGLRSLIEIASDKTKPLDVRTKAFYALSNLIRNHKDISEKFFKLNGLDCIAPVLSDNTAKPKLKMRAIALLTAYLSSVKIDENIISVLRKDGVIESTIECLSDESNLNIIDRVLSFLSHLISSGIKFNEQELHKLNEGYKHIEPLKDRLNEDDYLAVKYVL
  soluble on expression in E. coli: soluble

## MGSDKIHHHHHHMILFEWGTYNALSTLKQAALLGTRITEIPPAVLSRRLPSGYYESYKKLGGEYFTSILAHGPYYSLSSEKGLKGHLSAIEKATLCGAEIYNYHLGKRVGDDLNYHLEVLKKFSEVNNEMIYSPEPATNIGEFGTLDELEELIKAAKEEDIKIIPSLQLENIFLNELGVYEKDDLDEAAEKADVDWWLKIFRRMDKISDYIMHFRFSQVIGLKYGKRFYKKRVPLGKGYPPVEPLTEALATYLVDNATRGGFKKVLFVYTGLPEVKYRDLIDLYAMIMKKSIDKLMSRESQVEYGDFYKVMSSEEEE
  soluble on expression in E. coli: not soluble

## MGSDKIHHHHHHMNVLALDTSQRIRIGLRKGEDLFEISYTGEKKHAEILPVVVKKLLDELDLKVKDLDVVGVGIGPGGLTGLRVGIATVVGLVSPYDIPVAPLNSFEMTAKSCPADGVVLVARRARKGYHYCAVYLKDKGLNPLKEPSVVSDEELEEITKEFSPKIVLKDDLLISPAVLVEESERLFREKKTIHYYEIEPLYLQKSIAELNWEKKKRG
  soluble on expression in E. coli: soluble

## MGSDKIHHHHHHMLILYQFERTWGNPNLSHFCCKTETYLRMAGIEYAIKTTLPLFAPKGKLPYIKDGNIKLADSRFIIRHLKNRYKDLDEGLNPAEIALSLAMQRLIEEHLFWATMYTRWQYTDVNWQVNKKAIFDVLPPAIRDVAAVIYRYRIRRQIYGHGMGRHKPEEIFELGMQDIDALSACLGDKKYFLGDQPTTLDASAFGFLINTIACPIESPLKEYGLSKENLGDYIDRIKMQYYPDLQ
  soluble on expression in E. coli: not soluble

## GIDPFTKANSEACRDGLRAVMECRNVTHLLQQELTEAQKGFQDVEAQAATCNHTVMALMASLDAEKAQGQKKVEELEGEITTLNHKLQDASAEVERLRRENQVLSVRIADKK
  soluble on expression in E. coli: soluble

## MSLNGSSIIEFEDMTWSQQVEDSKKPVVVMFYSPACPYCKAMEPYFEEYAKEYGSSAVFGRINIATNPWTAEKYGVQGTPTFKFFCHGRPVWEQVGQIYPSILKNAVRDMLQHGEECIRKSTPVGQDITGYVEGHHHHHH
  soluble on expression in E. coli: soluble

## MSLIEVDLLNNDNLKKKTSGFTILSGDSTDGHGGYGAGVLSLDNVTPVFVDPEEERAFVDLGALHARSEVEKRIKFLPNKEEVPNGKLYWLVWVTIDSKKEGPYYAGVAGCEMTVDREIRRGYKSMPEHVNKMDKSIKGKIVVDDMDERSKRILGEYLKSFNEDMWKRSEPELREKLLGEKEGHHHHHH
  soluble on expression in E. coli: soluble

## MVGLLVEDTIDDQGWNRKAYEGLLNIHSNLDVDVVLEEGVNSEQKAHRRIKELVDGGVNLIFGHGHAFAEYFSTIHNQYPDVHFVSFNGEVKGENITSLHFEGYAMGYFGGMVAASMSETHKVGVIAAFPWQPEVEGFVDGAKYMNESEAFVRYVGEWTDADKALELFQELQKEQVDVFYPAGDGYHVPVVEAIKDQGDFAIGYVGDQADLGGSTILTSTVQHVDDLYVLVAKRFQEGKLESGNLYYDFQDGVVSLGEFSSVVPDEVREQITDAISTYIQTGQFPHEEER
  soluble on expression in E. coli: soluble
